Consider one molecule from article doi:10.1101/2020.10.21.348805 (bioRxiv, 2020).

This experiment deals with T1, GST-OsDMI3 (rice (Oryza sativa), UniProt Q6AVM3 1-516).
T1 sequence (looked up): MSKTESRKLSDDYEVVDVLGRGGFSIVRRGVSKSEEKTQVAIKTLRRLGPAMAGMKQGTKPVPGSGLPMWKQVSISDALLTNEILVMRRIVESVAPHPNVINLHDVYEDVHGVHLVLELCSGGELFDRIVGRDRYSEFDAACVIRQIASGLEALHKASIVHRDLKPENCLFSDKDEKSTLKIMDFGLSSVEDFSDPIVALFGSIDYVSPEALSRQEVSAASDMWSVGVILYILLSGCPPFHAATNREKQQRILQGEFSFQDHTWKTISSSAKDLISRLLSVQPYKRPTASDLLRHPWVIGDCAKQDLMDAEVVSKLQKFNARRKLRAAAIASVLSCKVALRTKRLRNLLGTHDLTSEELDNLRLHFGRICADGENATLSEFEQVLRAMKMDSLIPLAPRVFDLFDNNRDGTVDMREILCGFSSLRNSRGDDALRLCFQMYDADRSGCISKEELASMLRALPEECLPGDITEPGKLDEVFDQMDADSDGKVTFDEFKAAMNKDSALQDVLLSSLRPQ
Briefly: pull-down.

B1: His-OsMKK6 (enzyme, rice (Oryza sativa), UniProt Q5QN75 1-355, looked up)
chain: MRGKKPHKELKLSVPAQETPVDKFLTASGTFKDGELRLNQRGLQLISEETADEPQSTNLKVEDVQLSMDDLEMIQVIGKGSGGIVQLVRHKWVGTLYALKGIQMNIQEAVRKQIVQELKINQATQNAHIVLCHQSFYHNGVIYLVLEYMDRGSLADIIKQVKTILEPYLAVLCKQVLEGLLYLHHERHVIHRDIKPSNLLVNRKGEVKITDFGVSAVLASSMGQRDTFVGTYNYMAPERISGSSYDYKSDIWSLGLVILECAIGRFPYIPSEGEGWLSFYELLEAIVDQPPPSAPADQFSPEFCAFISSCIQKDPAERMSASELLNHPFIKKFEDKDLDLRILVESLEPPMNISE
Take B1: the binding result was “binds”.
